According to patent US20100310549A1 (Bristol-Myers Squibb, published 2010):
Positions count from the first letter of the chain named. Numbers in names are those of the source.

B1: E19, E. coli-expressed, His6 (designed binder)
chain: EVVAATPTSLLISWRHPHFPTRYYRITYGETGGNSPVQEFTVPLQPPTATISGLKPGVDYTITGYAVTVERNGRHLMTPISINYRTEIDKPSQHHHHHH
notes: soluble E. coli form; N-terminal residues added for expression not described
B2: E29, E. coli-expressed, His6 (designed binder)
chain: B1 chain with H75V
notes: as for B1
B3: E18, E. coli-expressed, His6 (designed binder)
chain: B1 chain with H75E, M77N
notes: as for B1
B4: EGE11 (FG loop …) (designed binder)
chain: EVVAATPTSLLISWRHPHFPTRYYRITYGETGGNSPVQEFTVPLQPPTATISGLKPGVDYTITGYAVTMGKNDRELLTPISINYRT
B5: F10 (Table 2) (designed binder)
chain: B4 chain with G70A, K71P, D73G
B6: F6 (designed binder)
chain: B4 chain with M69V, G70E, K71Q, D73G, E75V, L77M
B7: K9 (designed binder)
chain: B4 chain with M69F, K71L, N72Y, D73G, R74K, T78I
notes: Del 1-8; in vitro translated, Flag tag
B8: K6 (designed binder)
chain: B4 chain with M69D, N72D, D73G, E75V
notes: as for B7
B9: K1 (designed binder)
chain: B4 chain with K71L, N72Y, D73G, R74H
notes: as for B7
B10: K14 (designed binder)
chain: B4 chain with M69R, G70E, K71E, R74H, T78I
notes: as for B7
B11: K15 (designed binder)
chain: B4 chain with M69E, G70V, K71H, N72H, L76I, L77K
notes: as for B7
B12: K10 (designed binder)
chain: B4 chain with M69T, K71P, E75L, L77F, T78V
notes: as for B7
B13: K13 (designed binder)
chain: B4 chain with M69L, G70A, K71L, N72K, D73G, R74H
notes: as for B7
B14: K12 (designed binder)
chain: B4 chain with M69D, G70V, K71Y, R74H, L76I, L77K
notes: as for B7
B15: M5FL, E. coli-expressed, His6 (designed binder)
chain: VSDVPRDLEVVAATPTSLLISWRHPHFPTRYYRITYGETGGNSPVQEFTVPLQPPLATISGLKPGVDYTITVYAVTKERNGRELFTPISINYRTEIDKPSQHHHHHH
notes: soluble E. coli form with Ser100
B16: VR28 (designed binder)
chain: VSDVPRDLEVVAATPTSLLISWRHPHFPTRYYRITYGETGGNSPVQEFTVPLQPPTATISGLKPGVDYTITGYAVTVAQNDHELITPISINYRT
notes: 10Fn3 variant, WT N-terminus; also called VR28 (I69T)
B17: E6, E. coli-expressed, His6 (designed binder)
chain: B1 chain with V69D, E70G, R71W, H75L, M77S, T78I
notes: as for B1
B18: VR28, E. coli-expressed, His6 (designed binder)
chain: B15 chain with L56T, V72G, K77V, E78A, R79Q, G81D, R82H, F85I
notes: soluble E. coli form; N-terminal Met not described

Molecular target: T1, full-length human KDR on CHO-KDR cells (human, UniProt P35968 20-1356)
T1 construct: whole, on cells; stably transfected CHO-K1 cells
Experiment: flow cytometry on CHO-KDR cells, anti-His6 detection
Procedure: The functionality of KDR and Flk-1 binding molecules in a cell culture model system was evaluated with E. coli produced binding molecules.
Binding of fibronectin-based scaffold protein to cell-surface KDR and Flk-1 was analyzed simultaneously on VEGF-R2-expressing and control cells by flow cytometry. CHO-pcDNA3 cells (control) were released from their dishes with trypsin-EDTA, washed in Dulbecco's PBS without calcium and magnesium (D-PBS⁻; Invitrogen), and stained for 30 minutes at 37° C. with 1.5 μM CMTMR (5-(and-6)-(((4-chloromethyl)benzoyl)amino)-tetramethylrhodamine) (Molecular Probes). The cells were washed in D-PBS⁻ and incubated for a further 30 minutes at 37° C., and then resuspended in blocking buffer (D-PBS710% fetal bovine serum) on ice. CHO-KDR or CHO-Flk cells were treated identically except that CMTMR was omitted. 75,000 of CMTMR-stained CHO-pcDNA3 cells were mixed with an equal number of unstained CHO-KDR or CHO-Flk cells in each well of a V-bottom 96-well plate. All antibodies and fibronectin-based scaffold proteins were diluted in 25 μl/well of blocking buffer, and each treatment was conducted for 1 hour at 4° C. Cell mixtures were stained with His₆-tagged fibronectin-based scaffold proteins, washed twice with cold D-PBS⁻, and then treated with 2.5 μg/ml anti-His₆ MAb (R&D Systems), washed, and stained with 4 μg/ml Alexa Fluor 488-conjugated anti-mouse antibody (Molecular Probes). For cells treated with an anti-KDR mouse monoclonal antibody (Accurate Chemical, Westbury, N.Y.) or an anti-flk-1 goat polyclonal antibody (R&D Systems), the anti-His₆ step was omitted, and antibody binding was detected with the species-appropriate Alexa Fluor 488 conjugated secondary antibody (Molecular Probes). Following staining, cells were resuspended in 200 μl/well D-PBS⁻/1% FBS/1 μg/ml 7-aminoactinomycin D (7-AAD; Molecular Probes) and analyzed by flow cytometry on a FACSCalibur (Becton Dickinson, San Jose, Calif.) equipped with a […].

Going from B1 to B2, the EC50 falls from 7.6 nM to 2.3 nM (3.3-fold). The second is the more potent here.

B3 gave an EC50 of 4.2 nM.

Molecular target: mouse vascular endothelial growth factor receptor-2 Fc chimera (Flk-1-Fc) (mouse) (UniProt P35918)
Experiment: radioactive equilibrium binding

mouse vascular endothelial growth factor receptor-2 Fc chimera (Flk-1-Fc) (mouse), sequence (P35918 20-762, change not shown): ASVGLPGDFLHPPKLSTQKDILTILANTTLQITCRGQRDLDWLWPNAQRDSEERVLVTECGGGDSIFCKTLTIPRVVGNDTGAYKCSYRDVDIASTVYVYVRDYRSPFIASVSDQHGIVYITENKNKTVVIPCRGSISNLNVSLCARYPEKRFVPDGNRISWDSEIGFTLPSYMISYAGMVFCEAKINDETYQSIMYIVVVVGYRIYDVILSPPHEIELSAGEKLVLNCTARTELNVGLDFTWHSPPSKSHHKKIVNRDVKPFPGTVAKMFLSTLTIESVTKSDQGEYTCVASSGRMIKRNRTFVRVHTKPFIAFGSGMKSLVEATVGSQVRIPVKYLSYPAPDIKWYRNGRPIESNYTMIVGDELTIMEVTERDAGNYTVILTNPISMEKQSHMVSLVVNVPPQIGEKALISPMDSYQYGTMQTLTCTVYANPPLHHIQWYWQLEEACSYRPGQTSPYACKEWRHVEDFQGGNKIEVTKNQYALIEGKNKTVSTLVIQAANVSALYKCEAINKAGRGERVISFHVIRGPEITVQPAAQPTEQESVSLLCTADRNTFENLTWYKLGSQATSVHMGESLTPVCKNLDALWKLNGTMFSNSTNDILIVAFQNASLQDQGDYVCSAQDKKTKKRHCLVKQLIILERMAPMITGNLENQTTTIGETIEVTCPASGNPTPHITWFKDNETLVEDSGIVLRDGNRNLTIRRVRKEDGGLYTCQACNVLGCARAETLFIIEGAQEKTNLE

B4 and B5 are the same in Binding to 1 nM Flk-1, %: 1% for the first, 1% for the second.

With B6 the Binding to 1 nM Flk-1, % was 2%.

Molecular target: T2, mouse vascular endothelial growth factor receptor-2 Fc chimera (Flk-1-Fc) (mouse, UniProt P35918 20-762)
T2 construct: bought from R&D Systems; also called mouse VEGF-R2-Fc; Fc part of the bought chimera not given, not described
Experiment: radioactive equilibrium binding assay, 1 nM Flk-1-Fc, percent bound, average of 3 experiments

T2 sequence (P35918 20-762, change not shown): as above

B7: no binding (tested: 1 nM Flk-1-Fc).
B8: no binding (tested: 1 nM Flk-1-Fc).
B9: no binding (tested: 1 nM Flk-1-Fc).
B10: no binding (tested: 1 nM Flk-1-Fc).
B11: no binding (tested: 1 nM Flk-1-Fc).
B12: no binding (tested: 1 nM Flk-1-Fc).
B13: no binding (tested: 1 nM Flk-1-Fc).
B14: no binding (tested: 1 nM Flk-1-Fc).

Molecular target: human KDR/EpoR fusion (phKE8) on Ba/F3-KDR cells (human, UniProt P35968 20-764; P19235 251-508, limits assumed)
Experiment: cell-based or functional assay

Compared with B15, B1 is 3.2-fold higher in “Inhibition of VEGF-induced proliferation, Ba/F3-KDR (IC50, nM)” value: 3.9 nM for the first, 12.3 nM for the second.

Compared with B2, B3 is 1.9-fold lower in “Inhibition of VEGF-induced proliferation, Ba/F3-KDR (IC50, nM)” value: 10 nM for the first, 5.4 nM for the second.

Molecular target: T3, flk-1/EpoR fusion (pmKE2) on CHO-Flk or Ba/F3-Flk cells (mouse; human, UniProt P35918 20-762; P19235 251-508, limits assumed)
Experiment: cell-based or functional assay

T3 sequence (P35918 other isoform, or with tags, fused parts or gaps limits assumed, form in doubt): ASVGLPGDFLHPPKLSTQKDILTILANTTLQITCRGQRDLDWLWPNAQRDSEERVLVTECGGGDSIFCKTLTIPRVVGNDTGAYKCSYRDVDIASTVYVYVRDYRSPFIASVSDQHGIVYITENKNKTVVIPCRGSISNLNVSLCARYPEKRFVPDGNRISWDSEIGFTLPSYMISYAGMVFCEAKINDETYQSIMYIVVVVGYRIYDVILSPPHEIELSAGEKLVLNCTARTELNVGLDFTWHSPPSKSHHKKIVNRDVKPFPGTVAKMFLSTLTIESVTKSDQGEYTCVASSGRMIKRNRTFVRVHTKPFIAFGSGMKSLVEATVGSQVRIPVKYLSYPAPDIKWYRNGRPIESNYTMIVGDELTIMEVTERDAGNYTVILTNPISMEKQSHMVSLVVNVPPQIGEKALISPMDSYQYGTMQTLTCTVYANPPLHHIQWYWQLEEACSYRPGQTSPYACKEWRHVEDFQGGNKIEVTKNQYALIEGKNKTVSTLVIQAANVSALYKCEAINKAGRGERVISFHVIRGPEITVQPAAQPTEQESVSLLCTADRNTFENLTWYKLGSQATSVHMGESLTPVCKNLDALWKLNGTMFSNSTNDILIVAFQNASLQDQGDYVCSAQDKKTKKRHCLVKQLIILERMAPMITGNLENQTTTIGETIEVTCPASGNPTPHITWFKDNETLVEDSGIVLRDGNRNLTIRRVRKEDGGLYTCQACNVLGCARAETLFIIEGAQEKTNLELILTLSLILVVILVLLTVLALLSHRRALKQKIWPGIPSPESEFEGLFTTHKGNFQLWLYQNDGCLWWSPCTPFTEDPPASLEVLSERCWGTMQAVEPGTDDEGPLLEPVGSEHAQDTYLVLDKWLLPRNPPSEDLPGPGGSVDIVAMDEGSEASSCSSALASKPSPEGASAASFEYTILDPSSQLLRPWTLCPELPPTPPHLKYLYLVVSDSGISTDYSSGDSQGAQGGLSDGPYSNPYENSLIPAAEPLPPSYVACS

B15 and B1 are within 1.5-fold of each other in “Inhibition of VEGF-induced proliferation, Ba/F3-Flk (IC50, nM)” value: 5.1 nM for the first, 5.8 nM for the second.

Going from B2 to B3, the “Inhibition of VEGF-induced proliferation, Ba/F3-Flk (IC50, nM)” value falls from 4.7 nM to 2.4 nM (2-fold).

Molecular target: T3, flk-1/EpoR fusion (pmKE2) on CHO-Flk or …
Experiment: flow cytometry on CHO-Flk cells, anti-His6 detection

Going from B1 to B2, the EC50 falls from 5.3 nM to 0.6 nM (8.8-fold).

Work on B3 yielded an EC50 of 0.9 nM.

Molecular target: T4, human vascular endothelial growth factor receptor-2 Fc chimera (KDR-Fc) (human, UniProt P35968 20-764)
T4 construct: range 1-764; also called human VEGF-R2-Fc; hKDR; not shown: human IgG1 Fc
Experiment: BIAcore, 20 nM KDR-Fc over immobilized VEGF165 in the presence of the soluble binder; blocked ligand VEGF165
Procedure: For inhibition experiments, human VEGF₁₆₅ was immobilized on a surface of CM-5 chip and KDR-Fc was injected at a concentration of 20 nM in the presence of different concentrations of soluble binding proteins ranging from 0 to 100 nM. IC₅₀ was determined at a concentration when only 50% of KDR-Fc binding to the chip was observed.

B16 was tested, and the “IC50 (read off the curve)” value was ~20 nM.

Molecular target: T2, mouse vascular endothelial growth …
Experiment: BIAcore, Flk-1-Fc immobilised on CM5 chip
Procedure: (§1) The binding kinetics of fibronectin-based scaffold proteins binding proteins to the target was measured using BIAcore 2000 biosensor (Pharmacia Biosensor). Human and mouse VEGF-R2-Fc fusions were immobilized onto a CM5 sensor chip and soluble binding proteins were injected at concentrations ranging from 0 to 100 nM in buffer O (10 mM HEPES, 150 mM NaCl, 0.005% Tween 20, pH 7.4). Sensorgrams were obtained at each concentration and were evaluated using a program, BIA Evaluation 2.0 (BIAcore), to determine the rate constants […] The affinity constant, KD was calculated from the ratio of rate constants koff/kₒₙ.

Compared with B15, B1 is 6.2-fold lower in Kd: 2.1 nM for the first, 0.34 nM for the second.

Compared with B17, B2 is 5.5-fold lower in Kd: 2.02 nM for the first, 0.37 nM for the second. The second binds more tightly here.

For B3, the Kd was 0.33 nM.

Compared with B15, B1 is 2.6-fold lower in koff: 0.000582 s⁻¹ for the first, 0.000223 s⁻¹ for the second.

Compared with B17, B2 is 4.7-fold lower in koff: 0.00136 s⁻¹ for the first, 0.000288 s⁻¹ for the second.

Binder B3 has a koff of 0.000195 s⁻¹.

Compared with B15, B1 is 2.4-fold higher in kon: 280000 M⁻¹ s⁻¹ for the first, 660000 M⁻¹ s⁻¹ for the second.

B17 and B2 are within 1.5-fold of each other in kon: 670000 M⁻¹ s⁻¹ for the first, 790000 M⁻¹ s⁻¹ for the second.

In the case of B3, the kon is reported as 600000 M⁻¹ s⁻¹.

Molecular target: VEGFR-2 (KDR) of HUVEC cells (human, UniProt P35968 20-1356)
Experiment: cell-based or functional assay

B15 and B1 are within 1.5-fold of each other in “Inhibition of VEGF-induced proliferation of HUVEC cells (IC50, nM)” value: 8.5 nM for the first, 11.8 nM for the second.

Going from B2 to B3, the “Inhibition of VEGF-induced proliferation of HUVEC cells (IC50, nM)” value rises from 8.4 nM to 12.8 nM (1.5-fold).

Molecular target: T5, human vascular endothelial growth factor receptor-2 Fc chimera (KDR-Fc) (human, UniProt P35968 20-764)
T5 construct: range 1-764; also called human VEGF-R2-Fc; not shown: human IgG1 Fc
Experiment: BIAcore, KDR-Fc immobilised on CM5 chip
Procedure: as §1

First: B15
Second: B18
The Kd of the first is 15-fold lower: 0.89 nM for the first, 13 nM for the second.

B1 and B17 are within 1.5-fold of each other in Kd: 0.06 nM for the first, 0.08 nM for the second.

Going from B2 to B3, the Kd rises from 0.19 nM to 0.46 nM (2.4-fold).

Going from B15 to B18, the koff rises from 9.2e-05 s⁻¹ to 0.00034 s⁻¹ (3.7-fold).

Going from B1 to B17, the koff rises from 1.7e-05 s⁻¹ to 6.7e-05 s⁻¹ (3.9-fold).

First: B2
Second: B3
The koff of the first is 1.7-fold lower: 7e-05 s⁻¹ for the first, 0.000121 s⁻¹ for the second.

Going from B15 to B18, the kon falls from 100000 M⁻¹ s⁻¹ to 30000 M⁻¹ s⁻¹ (3.3-fold).

First: B1
Second: B17
The kon of the first is 3-fold lower: 300000 M⁻¹ s⁻¹ for the first, 890000 M⁻¹ s⁻¹ for the second.

B2 and B3 are within 1.5-fold of each other in kon: 360000 M⁻¹ s⁻¹ for the first, 260000 M⁻¹ s⁻¹ for the second.
